Assay results as given in US20200078442A1 (ARCH BIOPARTNERS, published 2020).
Ends that are not written are not given here.

T1: human DPEP3 (human, UniProt Q9H4B8 36-463)
T1 construct: whole, on cells; Transiently expressed on Cos-1 cells
T1 sequence (looked up): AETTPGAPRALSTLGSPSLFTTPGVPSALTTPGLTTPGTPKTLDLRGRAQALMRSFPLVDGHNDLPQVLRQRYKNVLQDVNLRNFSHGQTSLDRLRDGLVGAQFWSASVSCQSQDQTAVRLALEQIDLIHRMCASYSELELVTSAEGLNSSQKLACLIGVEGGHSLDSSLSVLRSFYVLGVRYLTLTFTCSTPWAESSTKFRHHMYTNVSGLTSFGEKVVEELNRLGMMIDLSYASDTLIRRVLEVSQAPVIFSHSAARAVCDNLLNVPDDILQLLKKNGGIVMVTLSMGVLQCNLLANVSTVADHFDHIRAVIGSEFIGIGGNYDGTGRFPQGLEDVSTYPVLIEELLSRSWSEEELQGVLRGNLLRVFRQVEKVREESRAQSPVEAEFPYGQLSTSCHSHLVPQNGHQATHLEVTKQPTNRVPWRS

T2: LSALT peptide (LSALTPSPSWLKYKAL)
T2 chain: LSALTPSPSWLKYKAL

T3: human membrane dipeptidase (DPEP-1) (human, UniProt P16444 17-385)
T3 construct: whole, on cells; The background section describes DPEP-1 as a disulfide-linked homodimer; also called renal dipeptidase; dehydropeptidase-1
T3 sequence (looked up): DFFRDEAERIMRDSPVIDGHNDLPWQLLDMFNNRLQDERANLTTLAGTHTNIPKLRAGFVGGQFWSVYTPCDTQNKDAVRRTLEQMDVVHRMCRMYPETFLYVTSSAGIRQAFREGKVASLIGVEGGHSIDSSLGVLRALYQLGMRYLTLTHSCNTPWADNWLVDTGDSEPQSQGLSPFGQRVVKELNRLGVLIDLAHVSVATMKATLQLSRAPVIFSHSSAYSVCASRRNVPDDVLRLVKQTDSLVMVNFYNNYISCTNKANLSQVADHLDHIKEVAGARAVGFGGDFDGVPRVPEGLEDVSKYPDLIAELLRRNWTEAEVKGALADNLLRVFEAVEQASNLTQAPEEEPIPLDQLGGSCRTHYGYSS

B1: GFE-1 peptide (CGFECVRQCPERC) (peptide)
peptide: CGFECVRQCPERC
modifications: cysteine pairing not given here; also: conjugated with Alexa-488 or Alexa-568, attachment site not given here
B2: human membrane dipeptidase (DPEP-1) (protein)
chain: T3 sequence (looked up)
B3: LSALT peptide (LSALTPSPSWLKYKAL) (peptide)
peptide: LSALTPSPSWLKYKAL
modifications: also: Alexa-488 conjugate in binding assays, site not given here
notes: Phage-display derived peptide; also called Metablok

What was measured:
[1] = biological target: T4, rat membrane dipeptidase (DPEP-1) (rat, UniProt P31430 17-384); test: immunofluorescence microscopy of Alexa-568 peptide on Cos-7 cells transfected with rat DPEP-1
T4 construct: whole, on cells; Transiently expressed on Cos-1 or Cos-7 cells; also called renal rat membrane dipeptidase; rat DPEP-1
T4 sequence (P31430 17-384): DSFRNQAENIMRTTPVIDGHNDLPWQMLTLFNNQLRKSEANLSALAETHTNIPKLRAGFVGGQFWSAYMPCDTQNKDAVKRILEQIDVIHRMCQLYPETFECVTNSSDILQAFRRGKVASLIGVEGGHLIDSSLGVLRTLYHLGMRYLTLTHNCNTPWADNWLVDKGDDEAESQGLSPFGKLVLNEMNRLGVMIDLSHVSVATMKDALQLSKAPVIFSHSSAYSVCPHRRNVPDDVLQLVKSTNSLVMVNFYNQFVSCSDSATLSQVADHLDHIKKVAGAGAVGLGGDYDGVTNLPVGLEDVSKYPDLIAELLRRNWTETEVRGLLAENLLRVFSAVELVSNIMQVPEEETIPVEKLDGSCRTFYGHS
Method: Cos-7 cells were transiently transfected with 5 μg of renal rat membrane dipeptidase (DPEP-1) plasmid using lipofectamine 2000 (Invitrogen) reagent. 48 hours after transfection, media was removed and cells were washed with PBS. Cells were incubated with LSALT conjugated with Alexa-488 (Green), GFE-1 peptide conjugated with Alexa-568 (Red) or control peptide conjugated with Alexa-488 (Green) on ice for 30 minutes. Cells were washed and fixed using 4% paraformaldehyde and immunofluorescence microscopy was performed to assess binding. Shown are representative photomicrographs of each experimental condition (n=2).

human DPEP3 = biological target: T1, human DPEP3; test: immunofluorescence microscopy of Alexa-488 peptide on transfected Cos-1 cells
Method: (§1) Cos-1 cells were transiently transfected with either 3 μg of human DPEP-1, DPEP2, or DPEP3 gene using lipofectamine 2000 (Invitrogen) reagent in OptiMEM medium. 24 hours after transfection, DPEP-1, DPEP2, or DPEP3 expressing cells were re-seeded on collagen coated (neutralized) wells in 24 well plates and allowed to grow for 24 hours at 37° C. 24 hours after seeding, media was removed and cells were washed with PBS. Cells were blocked with FBS/NBSA/Tween in PBS for 30 minutes on ice. Cells were then washed with PBS and incubated with LSALT or GFE-1, conjugated with Alexa-488 (green). After incubation, cells were washed with PBS and stained with DAPI for 5 minutes on ice. Cells were then washed with PBS and fixed using 4% paraformaldehyde and immunofluorescence microscopy was performed to assess binding. Representative photomicrographs are shown for each experimental condition (n=3) in FIG. 6A. Proteins from DPEP-1, DPEP2 and DPEP3 transfected cells were isolated after 48 hours using octyl-glucoside/RIPA lysis buffer and western blot analysis was performed to assess DPEP-1, DPEP2 and DPEP3 protein expression using specific antibodies; DPEP-1 antibody (Sigma), DPEP2 (Abcam) and DPEP3 (Santacruz). Blots were stripped and reprobed with an anti-β-actin.

human DPEP2 = biological target: T5, human DPEP2 (human, UniProt Q9H4A9 33-463); test: as above
T5 construct: whole, on cells; Transiently expressed on Cos-1 cells
T5 sequence (Q9H4A9 33-463): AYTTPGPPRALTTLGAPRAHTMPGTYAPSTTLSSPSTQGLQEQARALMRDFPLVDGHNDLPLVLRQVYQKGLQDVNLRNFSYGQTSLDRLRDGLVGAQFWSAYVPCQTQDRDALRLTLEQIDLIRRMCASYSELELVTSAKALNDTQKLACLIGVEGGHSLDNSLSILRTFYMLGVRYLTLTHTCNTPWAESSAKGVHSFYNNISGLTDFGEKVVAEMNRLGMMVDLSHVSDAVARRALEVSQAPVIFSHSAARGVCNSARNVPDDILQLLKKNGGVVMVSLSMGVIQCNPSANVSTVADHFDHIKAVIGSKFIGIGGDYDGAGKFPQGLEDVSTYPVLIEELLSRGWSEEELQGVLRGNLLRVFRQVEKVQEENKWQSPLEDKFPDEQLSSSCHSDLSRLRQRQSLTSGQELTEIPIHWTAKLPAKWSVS
Method: as §1

[2] = biological target: T2, LSALT peptide (LSALTPSPSWLKYKAL)
[3] = biological target: T3, human membrane dipeptidase (DPEP-1); test: immunofluorescence microscopy of Alexa-488 peptide on Cos-1 cells transfected with human DPEP-1
[4] = biological target: T4, rat membrane dipeptidase (DPEP-1); test: immunofluorescence microscopy of Alexa-488 peptide on Cos-1 cells transfected with rat DPEP-1
Method: Cos-1 cells were transiently transfected with either 3 or 5 μg of membrane dipeptidase (DPEP-1) cDNA corresponding to the rat (Shown in FIG. 5A) or human DPEP-1 (Shown in FIG. 5B) gene using lipofectamine 2000 (Invitrogen) reagent in OptiMEM medium. 24 hours after transfection, DPEP-1 expressing cells were re-seeded on collagen coated (neutralized) wells in 24 well plates and allowed to grow for 24 hours at 37° C. 24 hours after seeding, media was removed and cells were washed with PBS. Cells were blocked with FBS/NBSA/Tween in PBS for 30 minutes on ice. Cells were then washed with PBS and incubated with Alexa-488 (green) conjugated LSALT, GFE-1, control peptide or DPEP-1 antibody ( 1/100) (Sigma) on ice for 30 minutes. […] After incubation, cells were washed with PBS and treated with 10 mg/ml biotin transfer peptide (LSALT, GFE-1 or Control Peptide (KGAL)] for 10 minutes. Cells were then washed with PBS and biotin transfer was enabled by UV activation of the aryl azide groups for 15 minutes at 363 nm. Residual fluid was removed and monolayers were lysed either with octyl-glucoside/RIPA or 8M urea. Isolated supernatants were rotated with 50 μl of neutr-avidin agarose beads at 4° C. for 24 hours. Beads were washed with corresponding buffers, boiled in Laemmli buffer and analyzed by western blot using a DPEP-1 specific antibody (Proteintech).

Row | Binder | binding result [1] | binding result (human DPEP3) | binding result (human DPEP2) | membrane dipeptidase (DPEP-1) enzyme activity (Gly-D-Phe substrate, fluorimetric detection of D-Phe) [2] | binding result [3] | binding result [4]
1 | B1 | binds | no binding | no binding | – | – | –
2 | B2 | – | – | – | LSALT does not Inhibit Membrane Dipeptidase (DPEP-1) Enzyme Activity | – | –
3 | B3 | – | no binding | no binding | – | binds | binds
